Measurements as given in the DeepSol protein solubility set.

Test: soluble on expression in E. coli; label from the status in PepcDB or PDB records

Sequence	soluble on expression in E. coli
MGSDKIHHHHHHMTENKPSEQTNELKDLVVEKEFNQTLDDLLANPFGSDGESAASIVNNETDAAPRLVDMLTETNKKQALELSKQIEPGNQAAILGYGAPAQAKLHDFSHSMLAHVQKQDVGPIGDIISDLMYRLQEADPDELAARNKNVFTKMFHRVKQSINEITSKYQKIGTQIDRIALKLEHSKKRLMEDNSFLEQLYDKNKDYFQALNIYIAAGELKLEEINTKMLPELRKKAEQTGDQMDYQEVNDLTQFADRLDKRVYDLRLSRQITIQQAPQIRLIQNTNQALAEKIQSSIMTAIPLWKNQVAIALTLLRQQQAVAAQRQVSETTNELLKRNADMLKTNAIETARENERGIVDIETLKETQSSLIETLQETLKIQQEGRAKRAVAEKELVTMEQELKERLLEMK	not soluble
MGSDKIHHHHHHMTIKETSRSEFITLRGLRYHVRQWGTPGAPKLFMLHGWMDVAASFQFLVDCLERDWHVIAPDWRGFGETDWPTRYPGTESYWFADYIADLEALLDHYQPNGQVDLVGHSMGANVACLYAGIRPERVHRVVDLEGFGLTQTRAEQAPKRYARWLDELRQRPELRTYDDVSGVAARLQKTNPRLPDDRAAFLAEHWSRRNEAGQWEILGDPAHKLVNPVLYRVDEVMAIWAEVSAPVLHVEARDSATLRHIAHKQTLEEFRERFRAFRDFREVVIDDAGHMLHHDQPAAVAALIESFIA	not soluble
MGSDKIHHHHHHMTKEASRPALDLARQAYEAFKARGLNLNMQRGQPADADFDLSNGLLTVLGAEDVRMDGLDLRNYPGGVAGLPSARALFAGYLDVKAENVLVWNNSSLELQGLVLTFALLHGVRGSTGPWLSQTPKMIVTVPGYDRHFLLLQTLGFELLTVDMQSDGPDVDAVERLAGTDPSVKGILFVPTYSNPGGETISLEKARRLAGLQAAAPDFTIFADDAYRVHHLVEEDRAEPVNFVVLARDAGYPDRAFVFASTSKITFAGAGLGFVASSEDNIRWLSKYLGAQSIGPNKVEQARHVKFLTEYPGGLEGLMRDHAAIIAPKFRAVDEVLRAELGEGGEYATWTLPKGGYFISLDTAEPVADRVVKLAEAAGVSLTPAGATYPAGQDPHNRNLRLAPTRPPVEEVRTAMQVVAACIRLATEEYRAGH	not soluble
MGSDKIHHHHHHMTKHASARKFPPRARFLPKCEPSLYHERRSVSARASGPTTVIDPKTVTDVTNDTLSHYALPAYPAEQFCVDIGANAGDPIGILDDLVMDDIYELTSDARLRRLAFGVSTEGTITLHSESEMGQDGARLHLDCAVTLMPDLGSAIEALIAVEVDNEGLIARLYLIPQAPLAQGTGYRLVRASREPVWTRLAQLSCVAFSRGTHITMGTGEQRPIEMLRAGDRVLTRNSGARRITWVGHTTVRAVGEMAPILIRQGALNNARDLLVSPDHRLMIYQRSDALGAGRNELMIRARDLVNGDSVVVQDGGFVDYYQILFDRHHIIYAEGIAAESMLVDPVTRPALPEEVQQRLTQPRRHGTRGDHGLEIRRPMLSHPDTVDLLKRASLR	not soluble
MGSDKIHHHHHHMTKLDSFHLGELYRELRVARGLKMKDVVSDKLSQAQLSKFENGQTMLSADKLLTAISAIHMSFAEFEHAYYQYEDSSFFKQAKLISKYHSNKNIEGLEKLLIIHDNNSETYDVYDKLNKLVIRCAIHDLNPEYIISDDDKDFITTYLYSIEEWTEYELYIFGNTLQVLSDSDLIFLSKSFIERDSLYLSIPNNNFRTQLVVLNIIFVLLERKKDYCVHYFMKHLESILTYQDMFVKTVLIFLKKVLNYREGKGTHLIDLKKYIHDVEELGHEDVAEFLKDNIVNLL	not soluble
MGSDKIHHHHHHMTKTYHFIGIKGSGMSALALMLHQMGHKVQGSDVEKYYFTQRGLEQAGIQILPFDEKNITADVELIAGNAFRPDNNVEIAYVDAQGYTYKRYHEFLGEFMKGFTSLGVAGAHGKTSTTGLLAHVMRNITDTSFLIGDGTGRGSANAQYFVFESDEYERHFAPYHPEYSIITNIDFDHPDYFTSLEDVFNAFNDYAKQVKKALLVFGEDEQLRRITANAPIYYYGFEENNDFVAYDLKPSTSGSQFKVRHGEEELGEFQIPTFGKHNVMNATAVIANLYIAGFDLQLVAEHLKTFGGVKRRFTEKIVNDTVIIDDFAHHPTEIIATIDAARQKYPSKELVAIFQPHTFTRTIALLDEFADALNGADAVYLAQIYGSARETDNGQVKVEDLAAKINKKGGLVTVENTSPLLDHDNAVYVFMGAGDIQSYEYSFERLLSNLTNNVQ	not soluble
MGSDKIHHHHHHMTLAEKILSQKAGRKVEPGEFLLLEPDIALANDITAPLAIKKFKEYGGKKVKYPDRVVLVPDHFTPNKDIKSAMQVKMMREFAREQGIEKFFEIGRMGIEHVLLPEEGIVKSGDLVVGADSHTCTYGALGAFATGVGSTDIAGFYLIGKVWFRVPESIKVTLRGKFKDLVTAKDLVLKLISILGVDGANYKAIEFSGPGVKEISMDGRFTISNMAIEAGGKTGLFPVDEITIAYERERGIEVEEMYPDEDAKYVREVEMDLSELEPQVAYPFLPSNAKDVSEAEKERIKIDQAVIGSCTNGRIEDLRLAAQILKGRTVSPDVRCIIIPGSQKVYKQALKEGLIDIFIDAGCAVSTPTCGPCLGGHMGVLAEGEVAISTTNRNFVGRMGHPNSKVFLASPAVAAASAIKGYIADPRKL	not soluble
MGSDKIHHHHHHMTLDSIERAIADIANGKPVVVVDSEDRENEGDLIFAADKATPELVAFMVRYSSGYICASLTSEECDRLQLPPMTSHNEDARGTAYAVTVDANTGTTGISATSRADTLRKLADSQFGPQDFTRPGHVVPLRAKAGGVLERAGHTEAAVDLARMAGLNPAGVLCEVVSEDDPTDMARAPELRRFADRHDLALISIEQLIEWRRRYELLVERAVSTQLPTEFGRFTAVGYRGIVDGVEHIALVAGDITSDEGKDVLLRVHSECLTGDVLGSRRCDCGPQLQASLRAISERGRGVVVYLRGHEGRGIGLLHKLQAYHLQDEGADTVDANKALGLPVDARNYSVAAHILRDLGVQSVCLLTNNPEKSLELERYGVKVTGREPVKVEVHEDNIRYLTTKRDRMNHDLPWIAEYKKEQS	not soluble
MGSDKIHHHHHHMTLKVTLCDDSKMARKQLLRTLPDDWDAEVHQAEHGEQALTCLREGRAEVLFLDLNMPVKDGYETLQAIKEEQLETLVIVVSGDIQPEAQKRVQALGAMAFVKKPMKPEDIQTLLQQFGLYQPAAGQLKLADETPQAPANPLDVYREVSNVAMGQAGDHLARVLDTFIELPVPNVNFIAPSELHMAIESIDTNKQVAAVSQGFSGSGILGEALTLFNDASIDDIGKLLGAKLGESGSIKQQRIESLMDVASILSSACLNGLGQQLHVEFAASQPVLLGEHQSMRELIKHGEHRWQKILAIEIGYQLPEHKLAFDLLLLFPADAVKILDQQLAHWLQGDDE	not soluble
MGSDKIHHHHHHMTLPPPRPPALCRGVVGLPLETQIDLTASNLAAVADLAAQYGLLIYLEALSWTPLNTIDRQLRTIEIANRDNIRLVIDFWHCYTSGDTPKHIARLHKDIIYGVHICDSLAYAGGVPDENMLRDVPTGNGVLNLKEWVDAVKSTGYDGWWSCELFCRRQHQENSYDVARSLNALMRDLVGA	not soluble
MGSDKIHHHHHHMTMQPKYRELLLDEDVRRWFENLKAKSVLTATVALRNLGHYCELTGTTPHGILNKARANEKDFRYEFTDFVRKMEKEGKAGSYIARFKKVILSWLKFNDIRLQLTVNIAGENETPTIVNERVPSKEELARILRKATSRGRVAIAIMAFSGLRPESLGDYEGTDGLRLGDLKELKLSDEIQFDKIPATVMVKSKLSKARHHYFSFIGEEGTTYIREYLDERRKQGEELTYESPLLQFDVRGVKKNAFLRTTLVTRDIREAIEQAGLKMRPYVLRAYFSTALDIAESKGLISHPWRQFIMGHKGDIEARYSTNKRLPPDIIDEMRESYNKCTKFLETRISDVSEENARLYLQQQLLSAVGYRQDEIDKMNLAETSTEDFQKLLRDKVAGAMASNGSKQRLVSMNEIEKLLGEGYEFQAVLPNGKAIMKMPF	not soluble
MGSDKIHHHHHHMTNLGTAKNFWDATLYQDKHSFVWQYGEDLLQLLNPQPGEFILDLGCGTGQLTEKIAQSGAEVLGTDNAATMIEKARQNYPHLHFDVADARNFRVDKPLDAVFSNAMLHWVKEPEAAIASIHQALKSGGRFVAEFGGKGNIKYILEALYNALETLGIHNPQALNPWYFPSIGEYVNILEKQGFDVTYAALFNRPTTLAEGEFGMANWIQMFASAFLVGLTPDQQVQLIRKVEATLQDKLYHQESWTADYRRIRIVSIKAQ	not soluble
MGSDKIHHHHHHMTNRYDAVIIGAGHNGLVCGAYLARKGFKVCLLERRELAGGAAVSEAVWPGYRVSTASYTMALLQPRIIDELELAKYGYEIVVPPPMLHLYGDGRSLLFRPEGERLSADIARFSEADADAYGKYRAHMARLGKMVAGMLWETPPDPADSTLSARSRLLGFAWRFRDMGEQFYDLYDVLTLSARDYLARWFESDEMIAALGFYASCGGAATSICSPGSAYVLLRGFIRDHTTSAGPAGFVRGGMGSISEAIAASGKAYGMEVRCNAPVASVEISGERATGVRLSSGELIEAGCVISNVATKVLFQQLVGAQNVPPEFLARVRQIRDRSTAFKVNLALRRLPTFKDFDARSAGFAYPAQVRLAPSVEYLERAWDAAKYGEISPRPPLVVLTPSAVDPGVAPKGKHLMSIFGQHAPYALRDGPWDDAQRERLYQITLDTLAAYAPDIRECIDDAQVLSPADLERIFALPGGHVHHGELSADQIFFRRPVQGAADYCTPVKGLYQCGASVHPGGGVTGVPGYNAAHVVVRRERH	not soluble
MGSDKIHHHHHHMTNTFSFDWAIAPETPDTFFAEYFEKKPMLIKRGQPGYFSDLLSYGEIDRVVSTMGLHVPEINVTRADGNITPADFAYETGQIDPVRVNQLHADGATVILSGLHERLPALARYCRAMEAAMSARVQTNIYMTPPGNQGFNPHYDGHDVLVLQVAGTKEWRIYGTPVELPLADQAFERGMDVGEEAQRFVLEPGDAVYIPRGMAHDAVATDETSLHITTGLMFRTWADALAEAVIAKAHREPSLRRALPPGFANNGVDLDDYKDTFAELIELVGDAHVGKLLSGFREEFLTARVPRVEGQMAQLAKLDGLTMDSRMGAHPHIVFGIHDVPNEDQVCLVAQGAEIILPAHARDAMEFCITTADFRLGDMEGDLDDAGKMVLAKRFVREGLMRVL	not soluble
MGSDKIHHHHHHMTPDEVLRIASMHAVRGEYETALSLLRQLHAFIPDDIQVMRALGIVLANSGDHEAALPFLHQVAQRQCTPDNVMGLIKVLGAMRRFPDIDHVCSVVWPHIGDELAFLGEWGYANLLMERFDRALEILGKALALDPHFRPALHNGASALVRSGRGEEAVSMYSRLGRAWASTEAVARDFVGEYAALSQSYDDNPLHHYFSARLVRLVQDARPEAMPDSVLELGCGSGLLSQALPQKPDRLVGIDISPDMLARARTRGAYSSLLCGDLVEVMAGLEEPFDAVMSAGVLCYLPDLRKVFANVARLLSPGGVFAFSVDPVGDDMEIAEMEPGEFAHSRPYLRALAAETGLTEIRIDIDLHRGAPGFWCSFGKAG	not soluble
MGSDKIHHHHHHMTPIPKTSVPKTSVPTTPEPIRTNIPTALGKCLSLCLCLLLPLTQAWAETPANADVTASDNAIIAGHEFSHDSSEFKTPRRYMVSLPEGYHGNTRHYPVLYVVDADFQFQHVSALALHLARMGKIAPMIVVGIANQGQSDYLYTTTWKSDEGEAFGGADTFYRYLAKELIPTIDKQFRTNPHKALAGYSLGGLFTLYAMTQANSPFDAYLAMSPSVWYDKMHYIELLKQRLQKSPIEAPLFLTLANEQEMGVDELVTALKGYDAQKIHWQFKQYPSENHFTTALPALNDGLLFLSPDYGLDGSDMLALGDYRAVLDYFAKRKANWAGFHIEWLQAYQFGKYLFWSKQLDKLDGILAAVKQEFPDSLTIVTVQVAKGFNVKGDGARAKALLDSVAKEGEASPYWHREMSLYYQSQGDEANAQRHQQKALALATQYRLNTWELWELQ	not soluble
